Patent US20240398942A1, “USE OF ANTI-CD40 ANTIBODY” (CHIA TAI TIANQING PHARMACEUTICAL GROUP CO., LTD., priority 2021, published 2024)
Values belong to the molecule of their own block, whether it stands above or below them.

How the values were obtained:
human CD40-Fc protein = human CD40-Fc protein (Homo sapiens, UniProt P25942); assay: Capture ELISA binding; settings: in words, FIGS. 1A-1C
Description: For capture ELISA, an affinity-purified goat anti-human IgG (F(ab′)2 fragment-specific, Jackson Immuno Research, Cat. No. 109-005-097) in PBS at a concentration of 2 μg/mL was immobilized on a 96-well plate at 100 μL/well and incubated overnight at 4° C. The plate was washed once with a washing buffer (PBS+0.05% v/v of Tween-20, PBST) and then blocked with 200 μL/well blocking buffer (PBST containing 5% w/v of skim milk) for 2 h at 37° C. The plate was washed 4 times, and the anti-CD40 antibody of the present application, BM1, BM2, and a negative control hIgG (human immunoglobulin for intravenous injection (pH 4), Hualan Biological Engineering Inc.) serially 5-fold diluted from 66.7 nM in a PBST containing 2.5% w/v of skim milk was added at 100 μL per well. The plate was incubated for 40 min at 37° C. and washed 4 times. A biotinylated human CD40-Fc protein (amino acid residues 21-193 of SEQ ID NO: 30 linked to the N terminus of amino acid residues 99-330 of SEQ ID NO: 28, dissolved in PBST containing 2.5% w/v of skim milk at a concentration of 1.15 nM) was added at 100 μL/well to a 96-well plate coated with the anti-CD40 antibody. The plate was incubated at 37° C. for 40 min and washed 4 times. An HRP-labeled streptavidin (diluted at 1:10000 in PBST, Jackson Immuno Research, Cat. No. 016-030-084) was added at 100 μL/well, and the plate was incubated at 37° C. for another 40 min. […]

Human CD40-his [1] = biological target: T1, Human CD40-his (Homo sapiens, UniProt P25942); assay: Biacore surface plasmon resonance affinity and binding kinetics; settings: for Kd: dissociation rate
T1 construct: His; purchased Acro biosystems CD0-H5228
Text: (§1) The affinity and binding kinetics of the anti-CD40 antibody in the present application were characterized by a Biacore T200 system (GE Healthcare, Pittsburgh, PA, USA).
(§2) Briefly, a goat anti-human IgG (GE Healthcare, Cat. No. BR100839, human antibody capture kit) was covalently linked to a CM5 chip (GE Healthcare, Cat. No. BR100530, carboxymethylated dextran-coated chip) via the primary amine group using a standard amine coupling kit supplied by Biacore (GE Healthcare, Pittsburgh, PA, USA). Unreacted portions on the biosensor surface were blocked with ethanolamine. Then, the anti-CD40 antibody of the present application and two benchmark antibodies (BM1 (dacetuzumab, Genentech Inc., also referred to CD40-BM1, prepared in-house; the heavy and light chain amino acid sequences are set forth in SEQ ID NOs: 40 and 41, respectively) and BM2 (selicrelumab, Abgenix Inc., also referred to CD40-BM2, prepared in-house; the heavy and light chain amino acid sequences are set forth in SEQ ID NOS: 42 and 43, respectively)) at a concentration of 66.67 nM were directed through the chip at a flow rate of 10 μL/min. Then, serially diluted recombinant human CD40-his (Acro biosystems, Cat. No. CD0-H5228, serially 2-fold diluted from 80 nM in HBS-EP^+ buffer (supplied by Biacore)) or cynomolgus monkey CD40-his protein (Acro biosystems, Cat. No. CD0-C52H6, serially 2-fold diluted from 80 nM in HBS-EP^+ buffer (supplied by Biacore)) was directed through the chip at a flow rate of 30 μL/min. The antigen-antibody binding kinetics was tracked for 2 min and the dissociation kinetics was tracked for 10 min. The association and dissociation curves were fitted to a 1:1 Langmuir binding model using BIAcore evaluation software. KD, Ka, and Kd values were determined.

[2] = test system: Cynomolgus monkey CD40-his; assay: as above; settings: for Kd: dissociation rate
Text: as §1, §2

Human CD40-his [3] = biological target: T1, Human CD40-his; assay: Octet kinetics of humanized C1H1 antibodies; type: binding; settings: Table 3, Octet; for Ka: humanized antibodies in cell supernatant, chimeric and benchmark 5 μg/mL
Description: After six days of culture in a shake flask, the cell supernatant containing the humanized antibodies huC1H1-V1 to huC1H1-V4 was harvested and the binding affinity of the antibodies to human CD40 was determined on an Octet system (Fortebio, Octet RED 96) according to the following procedures. Briefly, an anti-human IgG Fc capture (AHC) biosensor (from ForteBio) was pre-soaked in a 10 mM glycine solution (pH 1.5) for 3 s, and then soaked in a running buffer (PBST containing 0.5% w/v of BSA) for 3 s. The pre-soaking and soaking procedures were repeated 3 times. Then, the sensor was soaked in the cell supernatant containing the humanized anti-CD40 antibody, chimeric antibody C1H1 dissolved in HBS-EP^+ buffer at a concentration of 5 μg/mL, or the benchmark dissolved in HBS-EP^+ buffer at a concentration of 5 μg/mL for 120 s, and then soaked in the running buffer for 5 min. The new baseline was run in the running buffer for 180 s. The sensor was then soaked for 120 s in human CD40-his protein (Acro biosystems, Cat. No. CD0-H5228) 2-fold serially diluted from 40 nM in the running buffer and for 10 min in the running buffer […]. Finally, the sensor was pre-soaked in a 10 mM glycine solution (pH 1.5) for 3 s, and then soaked in the running buffer for 3 s. The pre-soaking and soaking procedures were repeated 3 times. The association and dissociation curves were fitted to a 1:1 Langmuir binding model using ForteBio Data Analysis 8.1.

[4] = Table 2, Biacore, association rate
[5] = Table 5, Biacore, purified antibodies

T1 sequence (P25942 21-277): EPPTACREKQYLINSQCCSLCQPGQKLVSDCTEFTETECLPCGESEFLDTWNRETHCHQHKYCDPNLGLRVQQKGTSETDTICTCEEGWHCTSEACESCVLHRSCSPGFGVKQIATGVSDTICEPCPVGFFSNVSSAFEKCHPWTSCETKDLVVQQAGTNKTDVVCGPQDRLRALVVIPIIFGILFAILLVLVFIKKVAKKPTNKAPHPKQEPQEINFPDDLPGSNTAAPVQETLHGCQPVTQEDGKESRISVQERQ
Sequence of human CD40-Fc protein (P25942 21-193): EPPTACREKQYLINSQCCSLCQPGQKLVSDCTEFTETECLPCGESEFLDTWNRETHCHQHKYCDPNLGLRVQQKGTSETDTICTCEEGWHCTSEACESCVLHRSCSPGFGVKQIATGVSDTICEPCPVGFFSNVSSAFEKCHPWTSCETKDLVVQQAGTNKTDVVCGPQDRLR

Ka (Human CD40-his [1]; [4]): 1.82e+06 M⁻¹ s⁻¹
Kd (Human CD40-his [1]; Table 2, Biacore): 0.001567 s⁻¹
Kd (Human CD40-his [1]; Table 5, Biacore): 0.002221 s⁻¹
Ka (Human CD40-his [1]; [5]): 2.51e+06 M⁻¹ s⁻¹
Ka [2, 4]: 1.39e+06 M⁻¹ s⁻¹
Kd ([2]; Table 2, Biacore): 0.001478 s⁻¹
Kd ([2]; Table 5, Biacore): 0.002147 s⁻¹
Ka [2, 5]: 2.54e+06 M⁻¹ s⁻¹
Kd (Human CD40-his [3]; dissociation rate): 0.000929 s⁻¹
Ka (Human CD40-his [3]): 1.47e+06 M⁻¹ s⁻¹
B1: Chimeric C1H1: C1H1 variable regions (SEQ ID NOs: 19, 23) on human IgG1 heavy chain and human κ light chain constant regions (antibody, V domains shown)
VH: EVKLVESGGGLVKPGASLKLSCAASGFTFSNYGISWVRQTSDKRLEWVASISSGGDNTYYPDNVKGRFTISRENAKNTLYLQMSSLKSEDTALYYCARAGEKAMDYWGQGTSVTVSS
VL: DIVLTQSPVTLSVTPGDSVSLSCRASQTINNNLHWYQQKSHESPRLLIKYASQSISGIPSRFSGSGSGTDFTLSINSVETEDFGIYFCQQFSSWPLTFGAGTKLELK
modifications: human IgG1 and kappa constant regions; VH of mouse and chimeric C1H1 antibodies; VL of mouse and chimeric C1H1 antibodies
Binding ability to human CD40 in capture ELISA (human CD40-Fc protein): higher binding affinity and ability to human CD40

Ka (Human CD40-his [1]; [4]): 1.79e+06 M⁻¹ s⁻¹
Kd (Human CD40-his [1]; Table 2, Biacore): 0.001227 s⁻¹
Kd (Human CD40-his [1]; Table 5, Biacore): 0.000897 s⁻¹
Ka (Human CD40-his [1]; [5]): 2.1e+06 M⁻¹ s⁻¹
Ka [2, 4]: 1.39e+06 M⁻¹ s⁻¹
Kd ([2]; Table 2, Biacore): 0.001184 s⁻¹
Kd ([2]; Table 5, Biacore): 0.000863 s⁻¹
Ka [2, 5]: 2.29e+06 M⁻¹ s⁻¹
B2: Mouse C1H1: mouse anti-CD40 monoclonal antibody, VH SEQ ID NO: 19, VL SEQ ID NO: 23 (antibody, V domains shown)
VH: B1 VH
VL: B1 VL
modifications: VH of mouse and chimeric C1H1 antibodies; VL of mouse and chimeric C1H1 antibodies

Kd (Human CD40-his [3]; dissociation rate): 0.00283 s⁻¹
Ka (Human CD40-his [3]): 523000 M⁻¹ s⁻¹
Kd (Human CD40-his [3]; read-out: KD): 5.41 nM
B3: huC1H1-V3: humanized C1H1 anti-CD40 antibody, VH SEQ ID NO: 20 X1=A, VL SEQ ID NO: 24 X1=Y X2=Y, human IgG2/κ (antibody, V domains shown)
VH: EVQLVESGGGLVKPGGSLRLSCAASGFTFSNYGISWVRQAPGKGLEWVXSISSGGDNTYYPDNVKGRFTISRDNAKNSLYLQMNSLRAEDTAVYYCARAGEKAMDYWGQGTLVTVSS
VL: EIVLTQSPATLSLSPGERATLSCRASQTINNNLHWYQQKPGQAPRLLIXYASQSISGIPARFSGSGSGTDFTLTISSLEPEDFAVYXCQQFSSWPLTFGGGTKVEIK
modifications: not fully specified; variable positions X1=A; VL X1=Y X2=Y; IgG2/kappa constant; VH of huC1H1-V1 to huC1H1-V4; VARIANT 49 X can be A or S; VL of huC1H1-V1 to huC1H1-V4; VARIANT 49 X can be K or Y; VARIANT 87 X can be F or Y

Kd (Human CD40-his [3]; dissociation rate): 0.00367 s⁻¹
Ka (Human CD40-his [3]): 424000 M⁻¹ s⁻¹
Kd (Human CD40-his [3]; read-out: KD): 8.66 nM
B4: huC1H1-V4: humanized C1H1 anti-CD40 antibody, VH SEQ ID NO: 20 X1=S, VL SEQ ID NO: 24 X1=Y X2=Y, human IgG2/κ (antibody, V domains shown)
VH: B3 VH
VL: B3 VL
modifications: not fully specified; variable positions X1=S; VL X1=Y X2=Y; IgG2/kappa constant; VH of huC1H1-V1 to huC1H1-V4; VARIANT 49 X can be A or S; VL of huC1H1-V1 to huC1H1-V4; VARIANT 49 X can be K or Y; VARIANT 87 X can be F or Y
